Literature values as cited in publication PMC12043044.

Target: Ubiquitin (UniProt P0CG48)

Sla1 SH3-3, sequence (P32790 350-418): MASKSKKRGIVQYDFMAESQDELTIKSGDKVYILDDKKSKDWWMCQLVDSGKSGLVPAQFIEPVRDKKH

For Sla1 SH3-3 (from UniProt P32790), the Kd is listed as 40 µM.
